Test results as given in the supplement of paper PMC9732359.
± gives the uncertainty stated by the source.

assay: protein stability index of a GFP-peptide fusion (yeast GPS) (PSI 1-4); higher = more stable; sorted into four equal gates, so the index is relative within each strain; settings: doa10∆
Summary of the method: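 Tiled 17-residue yeast protein peptides were fused downstream of GFP in a plasmid that also expresses Cherry, and the pooled library was carried in yeast. Mid-log cultures in leucine-free medium were sorted into four equal gates by GFP/Cherry fluorescence ratio, and plasmids from each gate were PCR-amplified and Illumina-sequenced, with reads assigned to strains by barcodes. The protein stability index for each peptide was each gate's read frequency times its gate number, summed.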

Sequence	protein stability index
DKQDGTAKPAFSFGAKP [YJL041W/NSP1]	3.24 ± 0.087
DKYHPGYFGKVGMRYFH [RPL28]	3.23 ± 0.062
DKYKLYPVRIPRLDTSK [YJR042W/NUP85]	3.01 ± 0.075
DLASSKEVLAKIVDLLA [RPN5]	2.85 ± 0.21
DLAVCATIIGIISTAIA [ECM29]	1.95 ± 0.052
DLEEVKRFQVLYPCYFD [SEC65]	2.28 ± 0.14
DLKESMVKGLLKSFTES [ECM29]	3.34 ± 0.26
DLLKNAPLFKKNSSRPM [SMD3]	2.27 ± 0.047
DLSGADIQAMCTEAGLL [RPT2]	2.73 ± 0.12
DLSISALLGDKIYNFGE [RPN9]	3.08 ± 0.068
DLSLIVKARHGGCDYIF [CYT1]	2.74 ± 0.097
DLSRNGRNGSNGNDESS [NUT1]	3.19 ± 0.078
DLYHFALNYENEAGRKL [SNF2]	2.94 ± 0.16
DMDPLAVSAASVVSMSN [SIR2]	1.67 ± 0.065
DMQSSVDTGLQPQHPHY [YLR018C/POM34]	2.56 ± 0.043
DNDSLTDLESLSSGESN [SIR4]	3.15 ± 0.096
DNEGVASKSKKKFNMGK [RPC53]	3.33 ± 0.091
DNEQNLESDFVTGASQF [PRE2]	2.92 ± 0.095
DNGESAFRTLRLARSEK [RPL13A]	3.39 ± 0.24
DNHSGDATANATANATA [DSN1]	3.22 ± 0.12
DNKMDSVKEDVKNNQEL [SMC4]	2.85 ± 0.14
DNNNGDDDDEDDDEIVM [SKP1]	3.04 ± 0.065
DNNYNTAETNNKVHETS [YDL088C/ASM4]	2.99 ± 0.078
DNPLRQIPHFNNKILEK [BRR2]	3.08 ± 0.092
DNSATSYYELETIIFDS [RRI1]	3.19 ± 0.076

Sequence	protein stability index
DNSFNELTDNMSDFVPI [MCD1]	2.95 ± 0.082
DNVQANDPAREKFSSFI [SNF12]	2.94 ± 0.11
DNVSSQQMHEVRKELRG [RPP0]	2.4 ± 0.14
DPDLGLDLMFDEVYVQN [YJL039C/NUP192]	3.06 ± 0.13
DPFKTSSFNKRSKFLST [IRR1]	2.15 ± 0.074
DPFSDVDDDQDYVVAPG [GRR1]	2.56 ± 0.12
DPLAKVNVLLQSYFSQL [BRR2]	1.28 ± 0.049
DPNIKVNDTVKIDLASG [RPS4A]	2.81 ± 0.079
DPTLTTTTSFTTSEATA [RPN4]	2.85 ± 0.075
DQDKVNFASGDNNTASN [RPB3]	2.85 ± 0.16
DQMVVGWYHSHPGFGCW [RPN11]	2.57 ± 0.079
DRDESSPYAAMLAAQDV [RPS14A]	3.02 ± 0.088
DRFIELISDQLLEFFEL [YML103C/NUP188]	2.56 ± 0.067
DRKIEFPPPSVAARAEI [RPT6]	2.02 ± 0.094
DRKNRAPPQRPRFNREN [RPS26A]	2.81 ± 0.11
DRMDVDEDESQNIAQSS [HRT1]	2.37 ± 0.072
DRVAKVLTYPEKVTRYN [RPO31]	2.87 ± 0.12
DSALRYSILGDRFKYRS [POP4]	3.27 ± 0.18
DSDGTRLKGDIFCVGSG [PRE2]	2.88 ± 0.057
DSESDSDSETNHKSKDN [SKP1]	2.75 ± 0.053
DSFIEKIIPKDISATQL [ITC1]	2.96 ± 0.1
DSFKYEPLAPGNDNLIK [YLR335W/NUP2]	2.61 ± 0.061
DSGIGSNGSGIVAAGGG [CSL4]	3.45 ± 0.066
DSKNTPNVFDKDSYVRI [YDL088C/ASM4]	3.01 ± 0.12
DSLTQNNNNAPIIIYGT [YOR098C/NUP1]	2.69 ± 0.047

Sequence	protein stability index
DSNGDFNEDQLFSLLEL [RRP46]	2.83 ± 0.16
DSNMDSISSVVSEDLLD [RPN4]	2.3 ± 0.073
DSNSEILNFLNQEDLFE [YML103C/NUP188]	2.79 ± 0.12
DSPASNEDDLTVKLTEI [RPO31]	2.94 ± 0.071
DSSSVSEDSAVFKATSS [FAS1]	3 ± 0.089
DSTQLLETILEEFRNLA [SSN2]	2.69 ± 0.076
DSVENSSNILEDILYYS [SRB8]	2.92 ± 0.13
DSVFSFGPKKENRKKDE [YLR335W/NUP2]	3.01 ± 0.091
DTDKLPIKNRTSKSFSK [SIN4]	2.83 ± 0.1
DTFVHVTDLSGKETIAR [RPS14B]	2.88 ± 0.087
DTKDALSTRELAGKVGS [RPC53]	2.8 ± 0.08
DTKSVVGLVMFSQFWYW [RPN2]	2.35 ± 0.06
DTSDIIVDPTAEQLKIS [RRP46]	1.79 ± 0.091
DVAFADGGKTLRACAAN [YMR129W/POM152]	1.54 ± 0.18
DVDPEFYLKYVDIRVGK [RET1]	3.31 ± 0.28
DVEENRSEFIESLLNWI [YJR042W/NUP85]	3.19 ± 0.12
DVETVKREIQEALSEKP [RPC53]	3.27 ± 0.15
DVFTINPHQKDQLIISS [YML103C/NUP188]	1.56 ± 0.18
DVIHFEDSSILQSIVNE [PCI8]	3.21 ± 0.089
DVKLLNPIDIKRRFGEL [RPP1]	2.46 ± 0.089
DVLKDGENNINFQKASA [BRN1]	3.31 ± 0.16
DVPAYNVTSFMPFWKFF [SRB8]	1.62 ± 0.037
DVPGRELKYELIAEESE [RPB2]	3.07 ± 0.19
DVVEYLDKVINKELPIN [RPN8]	2.82 ± 0.22
DVVGTLSRNGKPVMEVT [FAS1]	2.62 ± 0.13

Sequence	protein stability index
DWEDEEKYEDEDEEKIL [DSN1]	3.28 ± 0.11
DYGEEIKSGVAKLESLL [MTW1]	3.26 ± 0.24
DYLTLNKVVVNLNDAGL [RPN2]	2.73 ± 0.091
DYNLRIYCYFLIMKLGR [SSN8]	1.23 ± 0.084
DYSEIQRSRRKFSERRK [DSN1]	2.86 ± 0.095
DYVASLNELYQTQQDLP [NSL1]	3 ± 0.056
EAAKLLVDSLATFTSIE [RPN7]	3.24 ± 0.18
EAASSNKSFIVDQGQIY [ITC1]	2.92 ± 0.1
EAIETCKNFEKTQLGST [GAL11]	2.51 ± 0.13
EARAEAINLMGVKNNLL [RPO31]	3.35 ± 0.22
EARFDVLITSYEMVIRE [ISW2]	1.87 ± 0.094
EARINELLSSLEGKGSL [RPP2B]	2.74 ± 0.12
EARLRNLTYSSGLFVDV [RPB2]	2.34 ± 0.057
ECADLWPRVASNSGVVV [RPL23A]	2.9 ± 0.17
ECLPAEGHDWKAPTKLD [DIS3]	3.27 ± 0.098
EDAFNFWFDKLVTKILP [YCG1]	1.94 ± 0.21
EDCVEEFFHLQHYLDTA [QCR6]	3.21 ± 0.085
EDEDDDDDDDEDEEEEE [QCR6]	3.06 ± 0.049
EDEEDDNISSFHSAVEN [YCG1]	3.12 ± 0.069
EDGLLEGLDELPKIIQL [SOH1]	3.11 ± 0.07
EDGTIESYNQNDWKLET [SIN4]	3.29 ± 0.22
EDHIFFKYIYELILAGA [YDL116W/NUP84]	1.74 ± 0.07
EDSENPSDWQRNSFIRD [ITC1]	3.1 ± 0.082
EEAAEESDDDMGFGLFD [RPP1B]	3.14 ± 0.059
